B1: DVD810 (bispecific antibody)
VH: EVQLVESGGGLVQPGGSLRLSCAASGYTFTNYGMNWVRQAPGKGLEWVGWINTYTGEPTYAADFKRRFTFSLDTSKSTAYLQMNSLRAEDTAVYYCAKYPHYYGSSHWYFDVWGQGTLVTVSSASTKGPSVFPLAPQVQLQESGPGLVKPSQTLSLTCTVSGYSISSDFAWNWIRQPPGKGLEWMGYISYSGNTRYQPSLKSRITISRDTSKNQFFLKLNSVTAADTATYYCVTAGRGFPYWGQGTLVTVSS
VL: DIQMTQSPSSLSASVGDRVTITCSASQDISNYLNWYQQKPGKAPKVLIYFTSSLHSGVPSRFSGSGSGTDFTLTISSLQPEDFATYYCQQYSTVPWTFGQGTKVEIKRTVAAPDIQMTQSPSSMSVSVGDRVTITCHSSQDINSNIGWLQQKPGKSFKGLIYHGTNLDDGVPSRFSGSGSGTDYTLTISSLQPEDFATYYCVQYAQFPWTFGGGTKLEIKR
notes: DVD-Ig; HC L, LC S; variable parts only
B2: DVD338 (bispecific antibody)
VH: EVQLVESGGGLVQPGGSLRLSCAASGYTFTNYGMNWVRQAPGKGLEWVGWINTYTGEPTYAADFKRRFTFSLDTSKSTAYLQMNSLRAEDTAVYYCAKYPHYYGSSHWYFDVWGQGTLVTVSSASTKGPQVQLQESGPGLVKPSQTLSLTCTVSGYSISSDFAWNWIRQPPGKGLEWMGYISYSGNTRYQPSLKSRITISRDTSKNQFFLKLNSVTAADTATYYCVTAGRGFPYWGQGTLVTVSS
VL: B1 VL
notes: DVD-Ig; HC S, LC S; variable parts only
B3: DVD840 (bispecific antibody)
VH: B2 VH
VL: DIQMTQSPSSLSASVGDRVTITCSASQDISNYLNWYQQKPGKAPKVLIYFTSSLHSGVPSRFSGSGSGTDFTLTISSLQPEDFATYYCQQYSTVPWTFGQGTKVEIKRTVAAPSVFIFPPDIQMTQSPSSMSVSVGDRVTITCHSSQDINSNIGWLQQKPGKSFKGLIYHGTNLDDGVPSRFSGSGSGTDYTLTISSLQPEDFATYYCVQYAQFPWTFGGGTKLEIKR
notes: DVD-Ig; HC S, LC L; variable parts only
B4: DVD792 (bispecific antibody)
VH: EVQLVESGGGLVQPGGSLRLSCAASGFTINASWIHWVRQAPGKGLEWVGAIYPYSGYTNYADSVKGRFTISADTSKNTAYLQMNSLRAEDTAVYYCARWGHSTSPWAMDYWGQGTLVTVSSASTKGPSVFPLAPQVQLQESGPGLVKPSQTLSLTCTVSGYSISSDFAWNWIRQPPGKGLEWMGYISYSGNTRYQPSLKSRITISRDTSKNQFFLKLNSVTAADTATYYCVTAGRGFPYWGQGTLVTVSS
VL: DIQMTQSPSSLSASVGDRVTITCRASQVIRRSLAWYQQKPGKAPKLLIYAASNLASGVPSRFSGSGSGTDFTLTISSLQPEDFATYYCQQSNTSPLTFGQGTKVEIKRTVAAPSVFIFPPDIQMTQSPSSMSVSVGDRVTITCHSSQDINSNIGWLQQKPGKSFKGLIYHGTNLDDGVPSRFSGSGSGTDYTLTISSLQPEDFATYYCVQYAQFPWTFGGGTKLEIKR
notes: DVD-Ig; HC L, LC L; variable parts only
B5: DVD852 (bispecific antibody)
VH: EVQLVESGGGLVQPGGSLRLSCAASGFTINASWIHWVRQAPGKGLEWVGAIYPYSGYTNYADSVKGRFTISADTSKNTAYLQMNSLRAEDTAVYYCARWGHSTSPWAMDYWGQGTLVTVSSASTKGPQVQLQESGPGLVKPSQTLSLTCTVSGYSISSDFAWNWIRQPPGKGLEWMGYISYSGNTRYQPSLKSRITISRDTSKNQFFLKLNSVTAADTATYYCVTAGRGFPYWGQGTLVTVSS
VL: B4 VL
notes: as for B3
B6: DVD822 (bispecific antibody)
VH: B4 VH
VL: DIQMTQSPSSLSASVGDRVTITCRASQVIRRSLAWYQQKPGKAPKLLIYAASNLASGVPSRFSGSGSGTDFTLTISSLQPEDFATYYCQQSNTSPLTFGQGTKVEIKRTVAAPDIQMTQSPSSMSVSVGDRVTITCHSSQDINSNIGWLQQKPGKSFKGLIYHGTNLDDGVPSRFSGSGSGTDYTLTISSLQPEDFATYYCVQYAQFPWTFGGGTKLEIKR
notes: as for B1
B7: DVD760 (bispecific antibody)
VH: B5 VH
VL: B6 VL
notes: as for B2
B8: DVD850 (bispecific antibody)
VH: EVQLVESGGGLVQPGGSLRLSCAASGFTISDYWIHWVRQAPGKGLEWVAGITPAGGYTYYADSVKGRFTISADTSKNTAYLQMNSLRAEDTAVYYCARFVFFLPYAMDYWGQGTLVTVSSASTKGPQVQLQESGPGLVKPSQTLSLTCTVSGYSISSDFAWNWIRQPPGKGLEWMGYISYSGNTRYQPSLKSRITISRDTSKNQFFLKLNSVTAADTATYYCVTAGRGFPYWGQGTLVTVSS
VL: DIQMTQSPSSLSASVGDRVTITCRASQDVSTAVAWYQQKPGKAPKLLIYSASFLYSGVPSRFSGSGSGTDFTLTISSLQPEDFATYYCQQSYTTPPTFGQGTKVEIKRTVAAPSVFIFPPDIQMTQSPSSMSVSVGDRVTITCHSSQDINSNIGWLQQKPGKSFKGLIYHGTNLDDGVPSRFSGSGSGTDYTLTISSLQPEDFATYYCVQYAQFPWTFGGGTKLEIKR
notes: as for B3
B9: DVD820 (bispecific antibody)
VH: EVQLVESGGGLVQPGGSLRLSCAASGFTISDYWIHWVRQAPGKGLEWVAGITPAGGYTYYADSVKGRFTISADTSKNTAYLQMNSLRAEDTAVYYCARFVFFLPYAMDYWGQGTLVTVSSASTKGPSVFPLAPQVQLQESGPGLVKPSQTLSLTCTVSGYSISSDFAWNWIRQPPGKGLEWMGYISYSGNTRYQPSLKSRITISRDTSKNQFFLKLNSVTAADTATYYCVTAGRGFPYWGQGTLVTVSS
VL: DIQMTQSPSSLSASVGDRVTITCRASQDVSTAVAWYQQKPGKAPKLLIYSASFLYSGVPSRFSGSGSGTDFTLTISSLQPEDFATYYCQQSYTTPPTFGQGTKVEIKRTVAAPDIQMTQSPSSMSVSVGDRVTITCHSSQDINSNIGWLQQKPGKSFKGLIYHGTNLDDGVPSRFSGSGSGTDYTLTISSLQPEDFATYYCVQYAQFPWTFGGGTKLEIKR
notes: as for B1
B10: DVD758 (bispecific antibody)
VH: B8 VH
VL: B9 VL
notes: as for B2
B11: DVD767 (bispecific antibody)
VH: QVQLQESGPGLVKPSQTLSLTCTVSGYSISSDFAWNWIRQPPGKGLEWMGYISYSGNTRYQPSLKSRITISRDTSKNQFFLKLNSVTAADTATYYCVTAGRGFPYWGQGTLVTVSSASTKGPSVFPLAPEVQLVQSGGGLVKPGGSLRLSCAASGFTFSSYAMHWVRQAPGKGLEWVAVISYDGSNKYYADSVKGRFTISRDNSKNTLYLQMNSLRAEDTAVYYCARFSGWPNNYYYYGMDVWGQGTTVTVSS
VL: DIQMTQSPSSMSVSVGDRVTITCHSSQDINSNIGWLQQKPGKSFKGLIYHGTNLDDGVPSRFSGSGSGTDYTLTISSLQPEDFATYYCVQYAQFPWTFGGGTKLEIKRTVAAPSVFIFPPDVVMTQSPLSLPVTPGEPASISCRSSQSLLHSNGFNYVDWYLQKPGQSPHLLIYFGSYRASGVPDRFSGSGSGTDFTLKISRVEAEDVGVYYCMQALQTPPWTFGQGTKVEIRR
notes: as for B4

In the first experiment the target is T1, VEGF (UniProt P15692-4 27-191, limits assumed, biotinylated).
T1 construct: ELISA antigen
The experiment is described as follows: direct bind ELISA, N-term VD.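 Also: antibody or DVD-Ig preparations bound to immobilized target antigen on ELISA plates, 1 h at room temperature, TMB detection read as absorbance at 450 nm.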 For orientation: An ELISA detects its analyte on a solid surface through an enzyme-linked reagent.
The molecule B1 yielded an EC50 of 0.33 nM. That is a sub-nanomolar value.
In turn, B2 had an EC50 of 0.24 nM.
Same read-out and setting: to B3 belongs 0.18 nM.
Same read-out and setting: under B4 stands 0.82 nM.
Still for that read-out and setting: under B5 stands 0.78 nM; under B6, 0.72 nM; under B7, 0.77 nM.
The molecule B8 gave an EC50 of 10.2 nM. This EC50 is about 13-fold higher than that of the molecule before.
With B9, the EC50 was 4.08 nM. Compared with the last molecule, the EC50 is about 2.5-fold lower.
Same read-out and setting: under B10 stands 5.37 nM.

A further experiment deals with T2, EGFR (UniProt P00533 25-645, limits assumed, biotinylated).
T2 construct: ELISA antigen; construct not described
The experiment in a line: direct bind ELISA, N-term VD.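 Also: antibody or DVD-Ig preparations bound to immobilized target antigen on ELISA plates, 1 h at room temperature, TMB detection read as absorbance at 450 nm.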
Regarding B11, the EC50 stood at 5.97 nM. In other words, the single-digit nanomolar range.

Another experiment concerns the target RON (UniProt Q04912 25-571, biotinylated). The experiment in a line: direct bind ELISA, C-term VD.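 Also: ELISA with antibody or DVD-Ig preparations applied to target antigen-coated plates for 1 h at room temperature, TMB colour development, absorbance read at 450 nm.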
On to B11, for which the midpoint of the response, the EC50, lay at 0.64 nM.

In another experiment the target is T2, EGFR. The experiment is described as follows: direct bind ELISA, C-term VD.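 Also: ELISA with antibody or DVD-Ig preparations applied to target antigen-coated plates for 1 h at room temperature, TMB colour development, absorbance read at 450 nm.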
Molecule B1 registered an EC50 of 228 nM.
Still for that read-out and setting: to B2 belongs 206 nM.
The same measure, in the same setting: to B3 belongs 69.8 nM.
Still for that read-out and setting: to B4 belongs 48.6 nM.
As to B5, the EC50 was 68.1 nM. This EC50 and that of the molecule before are within 1.5-fold of each other.
Still for that read-out and setting: under B6 stands 90 nM.
Still for that read-out and setting: under B7 stands 328 nM; under B8, 71.8 nM; under B9, 107 nM.
Still for that read-out and setting: to B10 belongs 562 nM.

The term EC50 denotes the concentration giving half of the maximal effect. Read a high EC50 as lower potency in that assay.

The values are drawn from patent US20110263827A1 (AbbVie / Abbott, published 2011).
